According to patent US20060140929A1 (Merck KGaA, published 2006):
Substitutions are numbered along the chain they refer to. Numbers in names are those of the source.

B1: hirudin mutein M 37 (L13T) (other)
chain: VVYTDCTESGQNTCLCEGSVVCGQGNKCILGSDGEKNQCVTGEGTPKPESHNDGDFEEIPEEYLQ
B2: hirudin mutein M 38 (L15A) (other)
chain: B1 chain with T13L, L15A
B3: hirudin mutein M 56 (I29N) (other)
chain: B1 chain with T13L, I29N
B4: hirudin mutein M 60 (I29T) (other)
chain: B1 chain with T13L, I29T
B5: hirudin mutein M 73 (V40A) (other)
chain: B1 chain with T13L, V40A
B6: hirudin mutein M 66 (L30K) (other)
chain: B1 chain with T13L, L30K
B7: hirudin mutein M 51 (I29D) (other)
chain: B1 chain with T13L, I29D
B8: hirudin mutein M 61 (L30A) (other)
chain: B1 chain with T13L, L30A
B9: hirudin mutein M 54 (I29H) (other)
chain: B1 chain with T13L, I29H
B10: hirudin mutein M 74 (V40T) (other)
chain: B1 chain with T13L, V40T
B11: hirudin mutein M 57 (I29Q) (other)
chain: B1 chain with T13L, I29Q
B12: hirudin mutein M 52 (I29E) (other)
chain: B1 chain with T13L, I29E
B13: hirudin mutein M 49 (V21R) (other)
chain: B1 chain with T13L, V21R
B14: hirudin mutein M 68 (L30P) (other)
chain: B1 chain with T13L, L30P
B15: hirudin mutein M 48 (V21Q) (other)
chain: B1 chain with T13L, V21Q
B16: hirudin mutein M 58 (I29R) (other)
chain: B1 chain with T13L, I29R
B17: hirudin mutein M 75 (K47T) (other)
chain: B1 chain with T13L, K47T
B18: hirudin mutein M 62 (L30D) (other)
chain: B1 chain with T13L, L30D
B19: hirudin mutein M 53 (I29G) (other)
chain: B1 chain with T13L, I29G
B20: hirudin mutein M 39 (L15H) (other)
chain: B1 chain with T13L, L15H
B21: hirudin mutein M 72 (L30T) (other)
chain: B1 chain with T13L, L30T
B22: hirudin mutein M 59 (I29S) (other)
chain: B1 chain with T13L, I29S
B23: hirudin mutein M 71 (L30S) (other)
chain: B1 chain with T13L, L30S
B24: hirudin mutein M 47 (V21P) (other)
chain: B1 chain with T13L, V21P
B25: hirudin mutein M 55 (I29K) (other)
chain: B1 chain with T13L, I29K
B26: hirudin mutein M 63 (L30E) (other)
chain: B1 chain with T13L, L30E
B27: hirudin mutein M 70 (L30R) (other)
chain: B1 chain with T13L, L30R
B28: hirudin mutein M 76 (P48A) (other)
chain: B1 chain with T13L, P48A
B29: hirudin mutein M 65 (L30H) (other)
chain: B1 chain with T13L, L30H
B30: hirudin mutein M 46 (V21N) (other)
chain: B1 chain with T13L, V21N
B31: hirudin mutein M 67 (L30N) (other)
chain: B1 chain with T13L, L30N
B32: hirudin mutein M 50 (I29A) (other)
chain: B1 chain with T13L, I29A
B33: hirudin mutein M 64 (L30G) (other)
chain: B1 chain with T13L, L30G
B34: hirudin mutein M 40 (L15Q) (other)
chain: B1 chain with T13L, L15Q
B35: hirudin mutein M 69 (L30Q) (other)
chain: B1 chain with T13L, L30Q

molecular target: thrombin; assay: cell-based or functional assay

Compared with B1, B2 is higher in “Relative Activity (ratio of variant IC50/WT IC50), chromogenic thrombin inhibition assay” value: 0.6 ratio for the first, 0.9 ratio for the second.

B3 and B4 are the same in “Relative Activity (ratio of variant IC50/WT IC50), chromogenic thrombin inhibition assay” value: 1 ratio for the first, 1 ratio for the second.

B5 and B6 are the same in “Relative Activity (ratio of variant IC50/WT IC50), chromogenic thrombin inhibition assay” value: 1 ratio for the first, 1 ratio for the second.

B7 and B8 are the same in “Relative Activity (ratio of variant IC50/WT IC50), chromogenic thrombin inhibition assay” value: 1 ratio for the first, 1 ratio for the second.

B9 and B10 are the same in “Relative Activity (ratio of variant IC50/WT IC50), chromogenic thrombin inhibition assay” value: 1 ratio for the first, 1 ratio for the second.

B11 and B12 are the same in “Relative Activity (ratio of variant IC50/WT IC50), chromogenic thrombin inhibition assay” value: 1 ratio for the first, 1 ratio for the second.

First: B13
Second: B14
The “Relative Activity (ratio of variant IC50/WT IC50), chromogenic thrombin inhibition assay” value of the first is lower: 0.77 ratio for the first, 1.83 ratio for the second.

First: B15
Second: B16
The “Relative Activity (ratio of variant IC50/WT IC50), chromogenic thrombin inhibition assay” value of the first is lower: 0.83 ratio for the first, 1 ratio for the second.

First: B17
Second: B18
The “Relative Activity (ratio of variant IC50/WT IC50), chromogenic thrombin inhibition assay” value of the first is higher: 2.2 ratio for the first, 2 ratio for the second.

First: B19
Second: B20
The “Relative Activity (ratio of variant IC50/WT IC50), chromogenic thrombin inhibition assay” value of the first is higher: 1.8 ratio for the first, 0.65 ratio for the second.

B21 and B22 are the same in “Relative Activity (ratio of variant IC50/WT IC50), chromogenic thrombin inhibition assay” value: 1 ratio for the first, 1 ratio for the second.

Compared with B23, B24 is lower in “Relative Activity (ratio of variant IC50/WT IC50), chromogenic thrombin inhibition assay” value: 1.83 ratio for the first, 1 ratio for the second.

Going from B25 to B26, the “Relative Activity (ratio of variant IC50/WT IC50), chromogenic thrombin inhibition assay” value rises from 1 ratio to 3.33 ratio.

B27 and B28 are the same in “Relative Activity (ratio of variant IC50/WT IC50), chromogenic thrombin inhibition assay” value: 1 ratio for the first, 1 ratio for the second.

First: B29
Second: B30
The “Relative Activity (ratio of variant IC50/WT IC50), chromogenic thrombin inhibition assay” value of the first is higher: 1 ratio for the first, 0.83 ratio for the second.

Compared with B31, B32 is lower in “Relative Activity (ratio of variant IC50/WT IC50), chromogenic thrombin inhibition assay” value: 1.54 ratio for the first, 1 ratio for the second.

Compared with B33, B34 is lower in “Relative Activity (ratio of variant IC50/WT IC50), chromogenic thrombin inhibition assay” value: 2.2 ratio for the first, 0.34 ratio for the second.

With B35 the “Relative Activity (ratio of variant IC50/WT IC50), chromogenic thrombin inhibition assay” value was 1 ratio.
